# Measurements reported in patent publication US20160053014A1 (SORRENTO THERAPEUTICS, published 2016).
# Several values for one entry are separate records, joined by “and”; a condition that tells them apart may be missing. Equal entries are not always repeated.
# T1: human CXCR5 (human, UniProt P32302 1-372)
# T1 construct: whole, on cells; also called hu-CHO; CHO-CXCR5 cells
# T1 sequence (looked up): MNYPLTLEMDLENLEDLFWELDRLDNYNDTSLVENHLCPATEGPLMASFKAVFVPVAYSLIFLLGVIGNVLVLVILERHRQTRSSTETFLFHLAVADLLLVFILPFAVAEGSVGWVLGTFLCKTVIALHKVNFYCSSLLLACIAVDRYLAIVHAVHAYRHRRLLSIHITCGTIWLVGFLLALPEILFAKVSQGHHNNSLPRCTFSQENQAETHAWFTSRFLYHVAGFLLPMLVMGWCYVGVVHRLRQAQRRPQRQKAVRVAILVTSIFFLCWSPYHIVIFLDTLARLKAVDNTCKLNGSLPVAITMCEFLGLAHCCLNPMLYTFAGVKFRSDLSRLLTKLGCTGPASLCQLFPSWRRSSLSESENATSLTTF
# B1: 16B7 (antibody, V domains shown)
# VH: QVQLVESGAEVKKPGASVKVSCKASGYTFTSYYVHWVRQAPGQGLEWMGIINPSGGTTSYAQKFQGRVTMTRDTSTSTVYMELSSLRSEDTAVYYCVRDRRVVAATTPSAFDVWGQGTMVTVSS
# VL: QSVVTQPPSVSAAPGQRVTISCSGSTSNIGSNYVSWYHQLPGTAPKLLVYHNDKRPSGIPDRFSGSKSGTSATLGITGLQTGDEADYYCGTWDSSLSVWVFGGGTKVTVL
# notes: tested as human IgG
# B2: PC12 (antibody, V domains shown)
# VH: EVQLLESGAEVKKPGASVKVSCKASGYTFTSYYVHWVRQAPGQGLEWMGIINPSGGTTSYAQKFQGRVTMTRDTSTSTVYMELSSLRSEDTAVYYCVRDRRVVAATTPSAFDVWGQGTMVTVSS
# VL: QSVVTQPPSVSAAPGQKVTISCSGSSSNIGNNYVSWYQQLPGTAPKLLIYDNNKRPSGIPDRFSGSKSGTSATLGIVGLQTGDEADYYCATWDGSLSTFLFGPGTKLTVL
# notes: tested as human IgG
# B3: 52A10 (antibody, V domains shown)
# VH: QVQLVQSGAEVKKPGASVKVSCKASGYTFTSYGISWVRQAPGQGLEWVGWISAYNGNTNYAQKLQGRVTMTTDTSTSTAYMELRSLRSDDTAVYYCARGSDYWGQGTLVTVSS
# VL: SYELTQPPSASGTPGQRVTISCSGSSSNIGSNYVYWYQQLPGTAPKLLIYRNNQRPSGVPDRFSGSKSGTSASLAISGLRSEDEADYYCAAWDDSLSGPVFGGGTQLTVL
# notes: tested as human IgG
# B4: 15H2 (antibody, V domains shown)
# VH: EVQLVESGGGVVQPGRSLRLSCAASGFTFSSYAMHWVRQAPGKGLEWVAVISYDGSKKYYADSVKGRFTISRDNSKNTLYLQMNSLRAEDTAVYYCARVGIAAAVGMDVWGQGTTVTVSS
# VL: DIVMTQTPLSLPVTLGQPASISCRSSQSLVYRDGNTYLNWFQQRPGQSPRRLIYKVSNRDSGVPDRFSGSGSGTDFTLKISRVEAEDVGVYYCMQGTHWPLTFGQGTKVEI
# notes: tested as human IgG; 181/182 '15H2' while the text calls the same pair '15H12'; also called 15H12
# B5: 52C6 (antibody, V domains shown)
# VH: QVQLVESGGGLVQPGGSLRLSCAASGFTFDDYAMHWVRQAPGKGLQWVAVISHDGSAKYYADSVKGRFTISRDNAKNSLYLQMNSLRAEDTAVYYCARSRWGDNWGQGTLVTVSS
# VL: SYELMQPASVSGSPGQSITISCTGTSSDVGGYNYVSWYQQHPGKAPKLMIYDVSKRPSGVSNRFSGSKSGNTASLTISGLQAEDEADYYCSSYTSSSTPYVFGTGTKLTVL
# notes: tested as human IgG
# B6: 12B11 (antibody, V domains shown)
# VH: EVQLVESGGGLVKPGRSLRLSCTASGFPFGDYAMSWFRQAPGKGLEWVALISYDGRNNYYADSVKGRFTISRDNSKNTLYLQMNSLRAEDTAVFYCARDRMRGPGGRFYYYHAMDVWGQGTTVTVSS
# VL: SYELMQPPSVSRGLRQTATLTCAGTRNDVGNEGASWLQQHQGHPPKLLSYRDTNRPSGISDRFSASRSGNTASLTISGLQPEDEADYYCSAWDSSLRAWVFGGGTKLTVL
# notes: tested as human IgG; also called 14E10
# B7: 13G9 (antibody, V domains shown)
# VH: EVQLVESGGGVVQPGRSLRLSCAASGFTFSRYGMHWVRQSPGKGLEWVAGISYDGSDKYYADSVKGRFTISRANSKNTLFLQMNSLRAEDTAVYYCARARGLDYWGQGTTVTVSS
# VL: QAVLTQPASVSGSPGQSITISCTGTSSDIGSYNLVSWYQQHPGKAPKLIIYEVNKRPSGVSNRFSGSKSGNTASLTISGLQAEDEADYYCSSYRSINTVVFGGGTQLTVL
# notes: tested as human IgG
# B8: 16A8 (antibody, V domains shown)
# VH: QVQLVESGGGVVQPGRSLRLSCAASGFTFSNYGMHWVRQAPGKGLEWVATISYDGSNNYYAASVKGRFTVSRDNSTLYLQMNSLRAEDTAVYYCAGAIAAAGVWGQGTLVTVSS
# VL: LPVLTQPASVSGSPGQSITISCTGTSSDVGGYNYVSWYQQHPGKAPKLMIYDVSNRPSGVSDRFSGSKSGNTASLNISGLQPDDEAEYYCSSYRTKNTLVFGGGTKLTVL
# notes: tested as human IgG
# B9: 14C11 (antibody, V domains shown)
# VH: QVQLQQSGPGLVKPSQTLSLTCAISGDTVSTNRAAWYWIRQSPSRGLEWLGRTHYRSRWLNDYAPSVKSRITINPDTSKNQFSLQLNSVTPEDTAVYYCARGAAGRAFDIWGQGTLVTVSS
# VL: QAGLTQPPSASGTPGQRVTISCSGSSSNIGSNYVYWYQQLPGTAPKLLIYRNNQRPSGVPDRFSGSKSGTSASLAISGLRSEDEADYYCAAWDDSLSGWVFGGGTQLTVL
# notes: tested as human IgG
# B10: 52H9 (antibody, V domains shown)
# VH: QVQLVESGGGVVQPGRSLRLSCAASGFTFSSYGMHWVRQAPGKGLEWVAVISYDGSNKYYADSVKGRFTISRDNSKNTLYLQMNSLRAEDTAVYYCAKLSGPTAKFDYWGQGTLVTVSS
# VL: QSVLTQPASVSGSPGQSVTISCTGTSRDVGGYNFVSWYQQHPGKAPKLMIYDVSNRPSGVSNRFTGSKSGNTASLTISGLQAEDEADYHCSSYRRGDTLVFGGGTKLTVL
# notes: tested as human IgG
# B11: 14F11 (antibody, V domains shown)
# VH: EVQLVQSGAEVKKPGASVKVSCKASGSTFTNYYIHWVRQAPGQGLEWMGIINPSGGSIGSPQKFQGRVTMTRDTSTNTVYMELSSLRSEDTAVYYCASRSFGNDGVFDIWGQGTMVTVSS
# VL: LPVLTQPRSVSGSPRQSVTISCTGTSSDVGGYNYVSWYQQHPGKAPKLMIYDVSKRPSGVPDRFSGSKSGNTASLTISGLQAEDEAHYYCKSYTTSRTWVFGGGTKLTVL
# notes: tested as human IgG
# B12: 52D6 (antibody, V domains shown)
# VH: EVQLLESGGGLVQPGRSLRLSCAASGFNFDAYAMHWVRQAPGKGLEWVSGISWNSGYIAYADSVEGRFAISRDNSKNTVFLQMNSLRAEDTAIYYCARDRWLSYWGQGTLVTVSS
# VL: QSVLTQPASVSGSPGQSITISCTGTSSDVGGYNYVSWYQQHPGKAPKLMIYDVSKRPSGVSNRFSGSKSGNTASLTVSGLQAEDEAEYYCSSYAGSNFVVFGGGTKLTVL
# notes: tested as human IgG
# B13: 52B10 (antibody, V domains shown)
# VH: EVQLLESGGGLVQPGGSLRLSCAGSESTFGDSWLNWVRQAPGKGLEWVANINKDGSKKEYVESVKGRFTISRDNAKKSVYLQMNSLRVEDTAVYYCLLKGVWGQGTLVTVSS
# VL: AIQLTQSPSFLSASVGDRVTITCRASQGISSYLAWYQQKPGKAPKLLIYAASTLQSGVPSRFSGSGSGTEFTLTISSLQPEDFATYYCQQLNSYPITFGPGTKVDIK
# notes: tested as human IgG
# B14: 14B11 (antibody, V domains shown)
# VH: QVQLVESGGGVVQPGMSLRLSCAASGFTFSSHAMHWVRQAPGKGLEWVAQIWSDGSNRYYSDSVKGRFTISRDQSKNTVSLQMNSLRAEDTAVYFCARDGQSMAPYAMDVWGQGTMVTVSS
# VL: DIVMTQTPLSLPVTPGEPASISCRSSQSLLHKNGNNYLDWYLQRPGQSPQLLIYLASNRASGVPDRFSGSGSGTDFTLEISRVQPEDVGVYYCMQGLQTPTFGPGTKVEIK
# notes: tested as human IgG
# B15: 11D3 (antibody, V domains shown)
# VH: QVQLVQSGGGVVQPGRSLRLSCAASGFTFSNFGMHWVRQAPGKGLEWVAVISYDGSNKYYADSVKGRFTISRDNSKNTLYLQMNSLRAEDTAVYYCARNTVTYHDVWGQGTTVTVSS
# VL: QPVLTQPASVSGSPGQSITISCTGTSSDVGGYNYVSWYQQHPGKAPKLMINDVSNRPSGVSSRFSGSKSGNTASLTISGLQAEDEADYYCSSYTSSSTLVFGGGTKLTVL
# notes: tested as human IgG
# B16: 52A9 (antibody, V domains shown)
# VH: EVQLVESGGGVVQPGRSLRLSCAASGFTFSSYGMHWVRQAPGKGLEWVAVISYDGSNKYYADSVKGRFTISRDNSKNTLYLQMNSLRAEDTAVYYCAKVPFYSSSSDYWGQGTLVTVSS
# VL: QSVVTQPASVSGSPGQSITISCTGTSSDVGGSKYVSWFQQHPGKAPKLMIYDVSNRPSGVSYRFSGSKSGNTASLTISGLQAEDEADYYCTSYTSSRTWVFGGGTKLTVL
# notes: tested as human IgG
# B17: 14D7 (antibody, V domains shown)
# VH: QVQLVQSGGGVVQPGRSLRLSCAASGFTFSSYGMHWVRQAPGKGLEWVAVISYDGSNKYYADSVKGRFTISRDNSKNTLYLQMNSLRAEDTAVYYCAKWGRRGAPDYWGQGTLVTVSS
# VL: ETTLTQSPGTLSVSPGERATLSCRASQSVSSNLAWYQQKPGQAPRLLIYGASTRATGIPARFSGSGSGTDFTLTISSLEPEDFAVYYCQQRNNWPLTFGGGTKVEIK
# notes: tested as human IgG
# B18: 14D9 (antibody, V domains shown)
# VH: EVQLVESGGGVVQPGRSLRLSCAASGFTFSSYAMHWVRQAPGKGLEWVAVISYDGSNKYYADSVKGRFTISRDNSKNTLYLQMNSLRAEDTAVYYCARSAWLDSWGQGTLVTVSS
# VL: QAGLTQPHSVSGSPGQSVTISCTGTSSDVGSYNHVSWYQQHPGKAPKLMIYDVSKRPSGVSNRFSGSKSGNTASLTISGLQAEDEADYYCSSYTSSSTYVFGTGTKVTVL
# notes: tested as human IgG
# B19: 11F3 (antibody, V domains shown)
# VH: QVQLVESGGGVVQPGRSLRLYCAASGFIFSSYAIHWVRQAPGKGLEWVAVISYDGSKKYYADSVEGRFTISRDNSKNSLYLQMNSLRVDDTAVYYCAAHRQLGYWGQGTLVTVSS
# VL: QSVLTQPPSASGSPGQSVTISCTGTSSDVGGYNYVSWYQQHPGKAPKLMIYDVSKRPSGVSNRFSGSKSGNTASLTISGLQAEDEADYYCSSYTSSSTLVFGGGTKLTVL
# notes: tested as human IgG
# B20: 16E3 (antibody, V domains shown)
# VH: QVQLVESGGGVVQPGRSLRLSCAASGFTFSSNGMHWVRQAPGKGLEWVAAISYNGRNQYYADSLKGRFTISRDNSKNSLYLQMNSLRAEDTAVYYCATPAATLDYWGQGTLVTVSS
# VL: QSVLTQPASVSGSPGQSITISCTGTSSDVGGYNYVSWYQHHPGKAPKLMIYDVTYRPSGVSNRFSGSKSGNTASLTISGLQAEDEADYYCSSYTSSSTLVFGTGTKVTVL
# notes: tested as human IgG
# Target: T1, human CXCR5
# Assay: flow cytometry on CHO-CXCR5 cells, IgG titration
# Description: This example describes a cellular binding assay to determine the EC₅₀ for anti-CXCR5 antibodies binding to human CXCR5. […] In this example, CHO-CXCR5 cells were lifted from culture flasks using non-enzymatic Cell Dissociation Buffer—PBS based (Life Technologies #13151-014). Cells were resuspended in FACS Buffer (2% Fetal Bovine Serum in PBS) at 1×10⁶ cells/ml and […] were aliquoted into the wells of a 96-well plate. Plated cells were spun down and the supernatant discarded. Cells were resuspended in 30 μl FACS Buffer serially diluted concentrations of CXCR5 IgG in triplicate. Plates were incubated for 1 hr at 4° C. and then washed 2× with FACS Buffer. Cells were resuspended in 50 μl goat anti-human IgG (γ-chain specific)-PE conjugated secondary antibody (Southern Biotech #2040-09) diluted 1:500 in FACS Buffer. Cells were further incubated for 30 min at 4° C. and then washed 1× with FACS Buffer. The cells were resuspended in a final volume of 30 μl FACS Buffer and analyzed using the Intellicyt Flow Cytometer. Median fluorescence in the FL-2H channel was determined using FlowJo software and EC₅₀ value was determined by plotting the data in GraphPad Prism and analyzing using a variable slope non-linear regression.
binder,measurement,value
B1,EC50,88 nM
B2,EC50,4.2 nM
B3,EC50,0.5 nM and 0.54 nM
B4,EC50,6.1 nM
B5,EC50,3 nM and 2.8 nM
B6,EC50,53 nM and 57 nM
B7,EC50,3 nM
B8,EC50,2.3 nM
B9,EC50,21 nM
B10,EC50,4 nM
B11,EC50,3.8 nM
B12,EC50,24 nM
B13,EC50,0.5 nM and 0.46 nM
B14,EC50,10 nM
B15,EC50,2.7 nM
B16,EC50,31 nM
B17,EC50,4 nM
B18,EC50,22 nM
B19,EC50,13 nM
B20,EC50,250 nM
